Results: patent US20240197828A1 (FEINSTEIN INSTITUTES FOR MEDICAL RESEARCH, published 2024)
Substitutions are numbered along the chain they refer to.

B1: MFG-E8-derived oligopeptide 3 (MOP3) (peptide)
peptide: RGDSSSYKTWNLRAFGWY
notes: Synthetic 18-residue chimeric peptide: RGD followed by 15 residues of the mouse MFG-E8 discoidin domain 2
B2: recombinant murine (rm) CIRP (ligand, mouse, UniProt P60824 1-172, looked up)
chain: MASDEGKLFVGGLSFDTNEQALEQVFSKYGQISEVVVVKDRETQRSRGFGFVTFENIDDAKDAMMAMNGKSVDGRQIRVDQAGKSSDNRSRGYRGGSAGGRGFFRGGRSRGRGFSRGGGDRGYGGGRFESRSGGYGGSRDYYASRSQGGSYGYRSSGGSYRDSYDSYATHNE
notes: For SPR it was bought (Cat # CSB-EP613483He0); For the cell assays it was made in the lab and, in the uptake experiments, labelled with FITC; also called eCIRP
B3: recombinant human CIRP (rhCIRP) (ligand, UniProt Q14011 1-172, looked up)
chain: B2 chain with A21S, S109G, G126N, A143S, G148S, S150G, G152S, Y153D
notes: The source of rhCIRP is not described in the methods

What was measured:
[1] = target: B2; assay: SPR (Example 1); Example 1; paragraph 73 gives a separate value of 3.1×10^-7 M
[2] = target: T1, αvβ3-integrin (recombinant, R&D Systems Cat #7889-AV-050); assay: SPR (Biacore/OpenSPR); αvβ3-integrin as analyte at 31.25-125 nM; 1:1 fit
T1 construct: Used as the analyte in SPR over immobilised MOP3; also called αvβ3-integrin receptor; auß3-integrin
Procedure: (§1) To examine the direct interaction between rmCIRP and rmMFG-E8, surface plasmon resonance (SPR), OpenSPR (Nicoya), was performed between rmCIRP and rmMFG-E8. rmCIRP was immobilized on carboxyl sensor and rmMFG-E8 was injected as an analyte in concentrations of 15.7 nM to 250 nM. Binding reactions were performed in DPBS, with Calcium and Magnesium, 0.05% P20, 1% BSA, and pH 7.4. In parallel experiments, binding of MOP3 to rmCIRP (analyte) was performed with concentrations of 0.5 μm to 2 μM, and binding of MOP3 to αᵥβ₃-integrin (analyte) was performed in concentrations of 31.25 nM to 125 nM. All binding reactions were performed in PBS 0.05% P20, pH7.4. Briefly, the carboxyl sensor was first cleaned by injection 10 mM HCL 150 μl, followed by injection of 150 μl of the mixture of 1 aliquot of N-ethyl-N′-[3-[…]]-carbodiimide (EDC) and 1 aliquot of N-hydroxysuccinimide (NHS) to activate the sensor surface. An aliquot of 200 μl of 50 μg/ml of the ligand diluted in 10 mM sodium acetate (pH 5.5) was injected at 20 μl/minutes into flow cell-channel-2 of the sensor for immobilization. Next, 150 μl of 1 M […] (pH 8.5) was injected to deactivate the remaining active sites on channel 1&2. […] To evaluate binding, the analyte was injected into flow cell-1 and flow cell-2 and increasing concentrations and real-time interaction data were analyzed by TraceDrawer (Nicoya). […]

[3] = target: B2; assay: SPR (Biacore/OpenSPR); rmCIRP as analyte at 0.5-2 µM; 1:1 fit; Example 2, Biacore
Procedure: as §1

[4] = target: T2, recombinant murine MFG-E8 (rmMFG-E8) (mouse, UniProt P21956 23-463); assay: SPR (Biacore/OpenSPR); rmCIRP immobilised, rmMFG-E8 as analyte at 15.7-250 nM; 1:1 fit; mouse proteins
T2 construct: For SPR it was bought from R&D Systems (Cat #2767-MF-050); For the cell assays it was made in the lab; also called milk fat globule-epidermal growth factor-factor VIII; AlexaFluor568-rmMFG-E8
T2 sequence: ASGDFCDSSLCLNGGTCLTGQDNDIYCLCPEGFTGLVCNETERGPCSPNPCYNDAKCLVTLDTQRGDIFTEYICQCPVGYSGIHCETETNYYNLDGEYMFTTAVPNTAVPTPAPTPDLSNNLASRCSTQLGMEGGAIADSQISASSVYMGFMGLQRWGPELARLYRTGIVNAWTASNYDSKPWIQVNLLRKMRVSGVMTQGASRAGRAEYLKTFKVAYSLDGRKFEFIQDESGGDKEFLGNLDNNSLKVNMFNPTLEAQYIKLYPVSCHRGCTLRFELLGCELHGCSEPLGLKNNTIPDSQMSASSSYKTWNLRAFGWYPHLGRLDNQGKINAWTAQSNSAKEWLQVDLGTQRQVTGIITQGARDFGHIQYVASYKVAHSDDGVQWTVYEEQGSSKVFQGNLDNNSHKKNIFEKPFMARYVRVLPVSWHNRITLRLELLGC
Procedure: as §1

[5] = target: T3, recombinant human MFG-E8 (rhMFG-E8) (human, UniProt Q08431 24-387, limits assumed); assay: SPR (Biacore); human proteins
T3 sequence (looked up): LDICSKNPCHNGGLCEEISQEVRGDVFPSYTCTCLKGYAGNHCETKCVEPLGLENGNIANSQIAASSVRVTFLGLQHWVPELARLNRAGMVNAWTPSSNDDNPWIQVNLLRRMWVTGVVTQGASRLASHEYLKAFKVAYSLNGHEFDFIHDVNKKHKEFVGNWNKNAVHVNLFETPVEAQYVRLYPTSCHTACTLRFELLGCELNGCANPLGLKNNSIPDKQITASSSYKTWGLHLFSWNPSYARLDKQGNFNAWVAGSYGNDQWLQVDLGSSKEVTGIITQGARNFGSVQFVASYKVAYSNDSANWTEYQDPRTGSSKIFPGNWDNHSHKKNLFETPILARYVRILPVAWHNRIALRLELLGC

T1 sequence (P43406 31-988, chain 1 of 2): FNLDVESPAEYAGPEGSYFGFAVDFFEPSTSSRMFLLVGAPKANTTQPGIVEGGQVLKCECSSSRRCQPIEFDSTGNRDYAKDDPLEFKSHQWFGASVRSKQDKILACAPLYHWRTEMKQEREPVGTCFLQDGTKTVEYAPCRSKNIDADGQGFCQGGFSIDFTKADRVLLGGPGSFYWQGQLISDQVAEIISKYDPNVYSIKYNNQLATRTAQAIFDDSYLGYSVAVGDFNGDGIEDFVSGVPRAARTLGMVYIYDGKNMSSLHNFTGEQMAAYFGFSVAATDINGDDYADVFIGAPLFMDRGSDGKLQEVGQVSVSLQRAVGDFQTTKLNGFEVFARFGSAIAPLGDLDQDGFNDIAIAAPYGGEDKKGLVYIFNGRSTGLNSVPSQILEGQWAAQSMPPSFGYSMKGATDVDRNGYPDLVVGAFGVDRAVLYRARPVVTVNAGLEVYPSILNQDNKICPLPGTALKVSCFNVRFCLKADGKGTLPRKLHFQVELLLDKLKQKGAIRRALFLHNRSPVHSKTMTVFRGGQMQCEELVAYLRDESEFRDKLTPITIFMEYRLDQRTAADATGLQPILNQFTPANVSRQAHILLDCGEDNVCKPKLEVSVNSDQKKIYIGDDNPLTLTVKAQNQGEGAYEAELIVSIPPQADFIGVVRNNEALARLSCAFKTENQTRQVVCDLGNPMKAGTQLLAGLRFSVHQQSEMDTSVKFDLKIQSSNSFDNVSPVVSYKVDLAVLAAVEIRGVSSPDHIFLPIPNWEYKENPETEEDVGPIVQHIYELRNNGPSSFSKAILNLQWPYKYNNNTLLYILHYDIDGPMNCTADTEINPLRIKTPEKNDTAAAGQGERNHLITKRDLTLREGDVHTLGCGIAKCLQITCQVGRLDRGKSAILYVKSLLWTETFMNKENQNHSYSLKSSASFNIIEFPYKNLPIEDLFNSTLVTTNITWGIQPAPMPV
T1 sequence (O54890 26-717, chain 2 of 2, further chain): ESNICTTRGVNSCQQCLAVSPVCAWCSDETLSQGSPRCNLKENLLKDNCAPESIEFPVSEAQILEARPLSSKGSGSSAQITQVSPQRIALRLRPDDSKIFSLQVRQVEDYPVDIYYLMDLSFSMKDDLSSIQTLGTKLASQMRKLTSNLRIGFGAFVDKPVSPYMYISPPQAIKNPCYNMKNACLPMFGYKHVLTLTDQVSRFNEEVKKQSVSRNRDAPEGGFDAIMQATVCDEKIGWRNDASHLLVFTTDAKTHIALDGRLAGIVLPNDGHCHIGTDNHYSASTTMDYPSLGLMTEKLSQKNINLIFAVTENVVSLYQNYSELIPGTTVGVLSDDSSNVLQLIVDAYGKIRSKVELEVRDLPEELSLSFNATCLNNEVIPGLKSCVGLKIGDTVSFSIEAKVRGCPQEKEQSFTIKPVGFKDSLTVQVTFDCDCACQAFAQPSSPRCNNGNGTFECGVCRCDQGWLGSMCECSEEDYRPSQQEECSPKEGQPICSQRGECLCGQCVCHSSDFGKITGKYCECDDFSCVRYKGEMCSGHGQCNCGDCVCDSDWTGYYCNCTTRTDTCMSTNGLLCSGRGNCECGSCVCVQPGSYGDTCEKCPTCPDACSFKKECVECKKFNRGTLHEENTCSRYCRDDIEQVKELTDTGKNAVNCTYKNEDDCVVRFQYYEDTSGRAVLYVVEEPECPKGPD

Binder: B1
- Kd [1]: 13 nM
- Kd [2]: 776 nM
- Kd [3]: 310 nM

Binder: B2
- Kd [4]: 200 nM

Binder: B3
- Kd [5]: 29 nM
